Numbering of substitutions follows the chain as printed.
B1: KCD216 (antibody, V domains shown)
VH: QVHLQQSGPELVKPGASVKISCKASGYTFIDYYINWVKQRPGQGLEWIGWIFPGSDSTYYNEKFKGKATLTVDKSSSTAYMLLSSLTSEDSAVYFCARYGYYGSSFYAMDYWGQGTSVTVSS
VL: DIQMTQSPASLSVSVGETVTITCRASENIYSNLAWYQQKQGKSPQLLVYAATNLADGVPSRFSGSGSGTQYSLKINSLQSEDFGSYYCQHFWGTPPTFGGGSKLEIK
B2: KCD111 (antibody, V domains shown)
VH: EVQLQQSGPELVKPGASVKISCKASGYSFTDYYMHWVKQSHGNILDWIGYIDPYNGVSSYNQKFKGKATLSVDQSSSTAYMELRSLTSEDSAVYYCSSYYGSSPYWYFDVWGTGTRVTVSS
VL: QIVLSQSPAILSASPGEKVTMTCRASSSVSYMHWYQQKPGSSPKPWIYATSNLASGVPTRFSGSGSGTSYSLTISKLEAEDAATYYCQQWSSNPYTFGGGTKLEIK
B3: KCD112 (antibody, V domains shown)
VH: EVQLQQSGPELVKPGASVKISCKASGYSFTAYYMNWVKHSPEKSLEWIGDINPSTGGTTYNQKFKARATLTVDKSSSTAYMQLKSLTSEDSAVYYCATTYYSGNSYVGFAYWGQGTLVTVSA
VL: DIVMTQSHKFMSTSVGDRVSITCKASQDVSTAVAWYQQKPGQSPKLLIFWTSTRHTGVPDRFTGSGSGTDYTLTISSVQAEDLALYYCQQHYTTPWTFGGGTKLEIK
B4: KCD115 (antibody, V domains shown)
VH: B3 VH with A31G, H39Q, R67K, T99P, S102Y, N104S
VL: B3 VL with A34D, F49Y, T51A, T93S
B5: KCD006 (antibody, V domains shown)
VH: EVQLQQSGAELVKPGASVKLSCTASGFKIKDTYMHWVKERPEQGLEWIGRIDPANGNTKYDPKFQGKATITADTSSNTAYLQLSSLTSEDTAVYYCANAMDYWGQGTSVTVSS
VL: QIILTQSPAIMSASPGEKVTMTCSARSSVSNMYWYQQKPGSSPRLLIYDTSNLASGVPVRFSGSGSGTSYSLTISRMEAEDAATYYCQQWSSYPWTFGGGTKLEIK
B6: KCD129 (antibody, V domains shown)
VH: EVQLVESGGGLVQPKGSLKLSCAASGFSFNTYAMNWVRQAPGKGLEWVARIRSKSNNYATYYADSVKDRFTISRDDSESMVYLQMNNLKTEDTAMYYCVRHGYYWYFDVWGTGTTVTVSS
VL: DVLMTQTPLSLPVSLGDQASISCRSSQSIVHSDGNTYLEWYLQKPGQSPKLLIYRVSNRFSGVPDRFSGSGSGTDFTLKISRMEAEDLGVYYCFQGSHVPYTFGGGTKLEIK
B7: KCD232 (antibody, V domains shown)
VH: B6 VH
VL: B6 VL
B8: KCD207 (antibody, V domains shown)
VH: B6 VH with E1A, I72L, V81L, H101Q, Y103F
VL: B6 VL with S28T, D33N, P45S, R55N, S68R, M83V, G105S
B9: KCD229 (antibody, V domains shown)
VH: B6 VH with S73F, V81L
VL: B6 VL with T7N, D33N, K50N, R55N, S57F, M83V, G105S
B10: 54V59D / 32W50I101V (antibody, V domains shown)
VH: EVQLVESGGGLVQPGGSLRLSCAASGYTFTDYYMNWVRQAPGKGLEWIGDINPVTGDTDYNADFKRRFTFSLDTSKSTAYLQMNSLRAEDTAVYYCTREGPSFAYWGQGTLVTVSS
VL: DIQLTQSPSSLSASVGDRVTITCRSSQTIVHWNGDTYLEWYQQKPGKAPILLIYKVSNRFSGVPSRFSGSGSGTDFTLTISSLQPEDFATYYCFQGSHVPVTFGQGTKVEIK
notes: KCD119 TAF variant; full antibody captured on protein A
B11: 54V59D / 34D60W101V (antibody, V domains shown)
VH: B10 VH
VL: B10 VL with W32S, G34D, I50N, F60W
notes: as for B10
B12: 54V59D / 54R101V (antibody, V domains shown)
VH: B10 VH
VL: DIQLTQSPSSLSASVGDRVTITCRSSQTIVHSNGDTYLEWYQQKPGKAPNLLIRKVSNRFSGVPSRFSGSGSGTDFTLTISSLQPEDFATYYCFQGSHVPVTFGQGTKVEIKR
notes: KCD119 TAF variant
B13: 31S54V59D / 54R101V (antibody, V domains shown)
VH: B10 VH with D31S
VL: B12 VL
notes: KCD119 TAF variant
B14: 54V / 101V (antibody, V domains shown)
VH: B10 VH with D59S
VL: B10 VL with W32S, I50N
notes: as for B10
B15: 54V59D / 34D50V101V (antibody, V domains shown)
VH: B10 VH
VL: B10 VL with W32S, G34D, I50V
notes: as for B10
B16: KCD001 (antibody, V domains shown)
VH: B2 VH with G26D, Y27N, D31G, S71T, Q74K, L83I, S97A, R116T
VL: B2 VL with T59A, Y70H, S71F, K76R, Y86F
B17: KCD033 (antibody, V domains shown)
VH: EVQLQQSGPELVKPGASMKISCTASGYSFTGYTMTWVKQSHGKNLEWIGLINPYNGGTNYNQKFKGKATLTVDKSSSIAYMELLSLTSEDSAVYYCARRHYGSNWDYWGQGTTLTVSS
VL: DIKLTQSPSSIYTSLGERVTITCKASQDINTYLSWFQQRPGKSPKTLIYRADRLVDGVPSRVRGSGSGQDYSLTISSLEYEDMGIYYCLQYDEFPYTFGGGTKLEIK
B18: KCD036 (antibody, V domains shown)
VH: B17 VH with T23K, L70F, I78T, N104S
VL: B17 VL with I11M, T13A, R39K, D52N, V62F, R63S, D82E
B19: KCD042 (antibody, V domains shown)
VH: B5 VH with K19R, K28N, D31H, M34I, K38S, E39Q, R50K, A97V, D101E
VL: B5 VL with I2S, I3V, R26N, N31D, Y35F, K38R, S92T
B20: KCD022 (antibody, V domains shown)
VH: DVQLQESGPDLVKPSQSLSLTCTVTGYSITSGYSWHWIRQFPGNTLEWMGYIHYSGSTNYNPSLESRISFTRDTSKNQFFLQLNSVTTEDTATYYCALHFYGYNLGWYFDVWGAGTTVTVSS
VL: DIVMTQSHKFMSTSIGDRVIITCKASQDVGTTVAWYQQRPGQSPKLLIYWASTRHTAVPDRFTGSGSGTDFTLTISNVQSEDLADYFCQQYTSYPLTFGAGTQLELK
B21: KCD015 (antibody, V domains shown)
VH: B5 VH with K28N, E39Q, N57Y, K59E, T91S, V93A, A97T, N98S, D101E, Y102F
VL: B5 VL with I3V, M11L, R26S, N31Y, M32I, G40R, W95F, I105V
B22: KCD005 (antibody, V domains shown)
VH: EVQLQQSGPELVKPGASVKISCKASGYTFTDHYMNWVKQSHGKSLEWIGDINPNNGGTSCNQKFKGKATLTVDKSSSTAYMELRSLTSGDSAVYYCTREGASFAFWGQGTLVTVSA
VL: B6 VL with D33N, N35D, R55K, M83V, Y101V, G105A, I111L
B23: KCD009 (antibody, V domains shown)
VH: QIQLVQSGPELKKPGETVKISCKASGYIFRNYGMNWVKQGPGKGLKWMGWINTYTGEPTYADDFKGRFAFSLETSASTAYLQISNLKNEDTATYFCVRDGPGFAYWGQGTLVTVSA
VL: B6 VL with Q27L, S28I, V30E, R55K, M83V, E86D, Y101V, G105A, K108N, I111L
B24: KCD124 (antibody, V domains shown)
VH: B22 VH with C60Y
VL: B6 VL with D33N, N35D, R55K, M83V, Y101L, G105A, I111L
B25: KCD010 (antibody, V domains shown)
VH: EVLLQQSGPELVKPGASVKIPCKASGYTFTDYDMDWVKQSHGKSLEWIGHINPNNGGTIYNQKFKGKATLTVDKSSSTAYMELRSLTSEDTAVYYCGTGDFAYWGHGTLVTVSA
VL: QIVLTQSPAIMSVSPGEKVTLTCSASSSVSSSYLYWYQKKPGSSPKLWIYSTSNLASGVPARFSGSGSGTSYSLTISSMEAEDAASYFCHQWSSYPPTFGAGTKLELK
B26: KCD023 (antibody, V domains shown)
VH: B25 VH with D33N, M34I, H50D, T58I, I59N, F101Y, H106Q
VL: B25 VL with I10F, V13A, K39Q, A61G, S93T

Target: T1, recombinant cynomolgus CFD, His-tagged (cynomolgus)
T1 construct: also called rcyCFD-His; recombinant Cyno-CFD
Test: SPR MX96

Row | Kd [nM] | Binder
1 | 13 | B1
2 | 7.2 | B2
3 | 9.1 | B3
4 | 18 | B4
5 | 150 | B5
6 | 6 | B6
7 | 5.5 | B7
8 | 1.4 | B8
9 | 1.6 | B9

Target: T2, serum purified human Complement Factor D (human, UniProt P00746 26-253)
T2 construct: Serum purified protein flowed over the captured antibodies; also called CFD; human CFD
T2 sequence (P00746 26-253): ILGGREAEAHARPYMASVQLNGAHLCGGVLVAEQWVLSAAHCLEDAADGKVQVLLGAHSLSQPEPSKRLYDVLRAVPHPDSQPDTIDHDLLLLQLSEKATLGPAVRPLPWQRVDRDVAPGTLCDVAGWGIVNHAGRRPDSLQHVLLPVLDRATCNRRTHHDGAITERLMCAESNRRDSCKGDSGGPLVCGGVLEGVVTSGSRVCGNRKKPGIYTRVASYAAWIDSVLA
Test: SPR Biacore, antibody on protein A chip, single cycle kinetics, 37 C;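 also: antibodies captured on the protein A surface to roughly 70 RU in HBS-EP+ buffer, with rate and affinity constants fitted using BIAevaluation software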
Description: (§1) Antibodies were diluted to 0.5 ug/ml in HBS-EP+ buffer and captured on a protein A chip for 25 seconds to reach approximately 70 resonance units. […] Binding kinetic information was obtained by the BIAevaluation software (GE).

Row | Kd [nM] | koff [s⁻¹] | kon [M⁻¹ s⁻¹] | Binder
10 | 0.0223 | 0.000305 | 1.37e+07 | B10
11 | 0.0531 | 0.00083 | 1.56e+07 | B11
12 | 0.0154 | 0.00037 | 2.4e+07 | B12
13 | 0.00725 | 0.000242 | 3.33e+07 | B13
14 | 0.142 | 0.00158 | 1.11e+07 | B14
15 | 0.0591 | 0.00079 | 1.34e+07 | B15

Target: T2, serum purified human Complement Factor D
Test: SPR Biacore, antibody on protein A chip, single cycle kinetics, 25 C;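 also: antibodies captured to roughly 70 RU on the protein A surface in HBS-EP+ running buffer, with kinetic constants derived by BIAevaluation fitting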
Description: as §1

Row | Kd [nM] | koff [s⁻¹] | kon [M⁻¹ s⁻¹] | Binder
16 | 0.0158 | 0.000105 | 6.64e+06 | B10
17 | 0.0213 | 0.000187 | 8.8e+06 | B11
18 | 0.0119 | 0.000141 | 1.19e+07 | B12
19 | 0.00394 | 5.48e-05 | 1.39e+07 | B13
20 | 0.0688 | 0.000491 | 7.14e+06 | B14
21 | 0.0257 | 0.000187 | 7.26e+06 | B15

Target: T3, human Complement Factor D (CFD), purified from human serum (human, UniProt P00746 26-253)
T3 construct: serum purified (CompTech A136); also called serum purified CFD; hCFD-Comptech
T3 sequence (P00746 26-253): as above
Test: SPR MX96, mAbs amine-coupled, CFD injected

Row | Kd [nM] | Binder
22 | 0.225 | B16
23 | 10.9 | B17
24 | 25.5 | B18
25 | 1.43 | B19
26 | 56.8 | B20
27 | 6.23 | B21
28 | 1.39 | B22
29 | 5.57 | B23
30 | 4.32 | B24
31 | 3.05 | B25
32 | 5.29 | B26
